Reference: patent US20230241243A1, “CARRIER PARTICLE-DRUG CONJUGATES, SELF-IMMOLATIVE LINKERS, AND USES THEREOF” (priority 2020, published 2023)

experiment: Drug-release assay of nanoparticle-conjugated linker-payloads under cleavage conditions (Cat-B, redox-responsive or pH-sensitive cleaving study), RP-HPLC; format: in vitro ADME; conditions: linker-payload conjugated to DBCO-functionalized silica nanoparticle, 37° C., 24 hours
Experimental: To assess the drug releasing profile of exemplary linker-drug conjugates, the linker-drug conjugates were each conjugated to a DBCO-functionalized ultrasmall silica nanoparticle via a click chemistry reaction between the azide groups on the linker-drug conjugate precursors and the dibenzocyclooctyne (DBCO) groups of the nanoparticles. The resulting drug-nanoparticle-conjugates were then incubated under the desired releasing conditions for release kinetics tests.
The amount of released drugs vs non-released drugs was measured using reverse phase HPLC by analyzing the area under curve (AUC) (FIG. 10A and FIG. 10B).
General Method: A Waters Xbridge Peptide BEH C18 column with 4.6 mm×50 mm dimensions, a particle size of 5 μm, and a pore size of 300 A was used (part number 186003622). Acetonitrile (VWR HiPerSolv Chromanorm, UHPLC Grade) was used as received without further preparation, […] trifluoroacetic acid in deionized water was prepared by adding 1 mL of trifluoroacetic acid (HPLC grade, Millipore-Sigma) into 999 mL 18.2 MΩ·cm deionized water that was generated using an IQ7000 Millipore deionized water system and passed through a 0.2 μm filter before use. The seal wash used for the system was composed of 90% 18.2 MΩ·cm deionized water and 10% methanol (HPLC grade, VWR). The injection needle was washed using a mixture of 25 vol % 18.2 MΩ·cm deionized water, 25 vol % acetonitrile, 25 vol % methanol, and 25 vol % 2-propanol. Samples were prepared in a concentration range of 0.25 to 2 μM and the injection volume ranges from 60 μL to 10 μL, respectively. Higher sample concentration can be used if detector signal is low. Vials used for all injections are fresh Waters Total Recovery vials with screw caps that have pre-slit PTFE septa (part number 186000385C).
Method for Protease-cleavable and Redox-responsive Linkers: Before any sample injections were started, the PDA lamp was turned on and allowed to warm up for at least 30 minutes. The system and column were equilibrated with 95% 0.01% TFA in deionized water, 5% acetonitrile for at least 10 minutes at a flow rate of 1.0 mL/min after the PDA lamp had warmed up. Two blank injections, with injection volumes of 10 μL containing only 18.2 MΩ·cm deionized water, were performed before the injection of any samples for analysis. The gradient used to elute protease-cleavable and redox-sensitive linkers conjugated to hybrid silica nanoparticles, and their components began at 95% 0.01% TFA in deionized water and 5% acetonitrile and linearly changed to 15% 0.01% TFA in deionized water, 85% acetonitrile over 8 minutes. Acetonitrile composition was increased to 95% over an additional minute and held at 95% for an additional 2 minutes to ensure that any strongly retained compounds are eluted. The composition of the solvent was then changed back to the starting composition of the gradient over an additional minute and allowed to equilibrate for 3 minutes before another injection began. Between sample injections a blank injection was run to ensure that no carryover occurred.
Method for pH-sensitive Linkers: Before any sample injections were started, the PDA lamp was turned on and allowed to warm up for at least 30 minutes. A gradient of pure deionized water and acetonitrile was used, all other consumables including column and vials were the same as for the method to purify Cat-B sensitive and redox-responsive linkers elaborated on above. Briefly the gradient composition began at 95% deionized water and 5% acetonitrile at a flow rate of 1.0 mL/min (not changed throughout the method). The composition was changed from this starting composition to 15% deionized water and 85% acetonitrile over a 12-minute period, during which the retained drug-linkers, released drug, free drug linker, and any other impurities eluted. At the 12-minute mark the composition was rapidly changed to 5% deionized water and 95% acetonitrile over the course of one minute. […]

Row | Structure (SMILES) | % of Payload Release in 24 Hours Under Cleavage Conditions
1 | CCc1c2c(nc3ccc(OC(C(=O)N(C)C)c4ccc(NC(=O)[C@H](CCCNC(N)=O)NC(=O)[C@@H](NC(=O)CCOCCOCCOCCOCCOCCOCCOCCOCCOCCOCCOCCN=[N+]=[N-])C(C)C)cc4)cc13)-c1cc3c(c(=O)n1C2)COC(=O)[C@]3(O)CC (stereo partly drawn) [Example 20, 1-azido-N-((2S)-1-(((2S)-1-((4-(1-(((s)-4,11-diethyl-4-hydroxy-3,14-dioxo-3,4,12,14-tetrahydro-1H-pyrano[3′,4′:6,7]indolizino[1,2-b]quinolin-9-yl)oxy)-2-(dimethylamino)-2-oxoethyl)phenyl)amino)-1-oxo-5-ureidopentan-2-yl)amino)-3-methyl-1-oxobutan-2-yl)-3,6,9,12,15,18,21,24,27,30,33-undecaoxahexatriacontan-36-amide] | + (‘+’ indicates 5-25% release)
2 | CCc1c2c(nc3ccc(OCc4c(F)cc(NC(=O)[C@H](CCCNC(N)=O)NC(=O)[C@@H](NC(=O)CCOCCOCCOCCOCCOCCOCCOCCOCCOCCN=[N+]=[N-])C(C)C)cc4F)cc13)-c1cc3c(c(=O)n1C2)COC(=O)[C@]3(O)CC [Example 21, 1-Azido-N-((S)-1-(((S)-1-((4-((((S)-4,11-diethyl-4-hydroxy-3,14-dioxo-3,4,12,14-tetrahydro-1H-pyrano[3′,4′:6,7]indolizino[1,2-b]quinolin-9-yl)oxy)methyl)-3,5-difluorophenyl)amino)-1-oxo-5-ureidopentan-2-yl)amino)-3-methyl-1-oxobutan-2-yl)-3,6,9,12,15,18,21,24,27-nonaoxatriacontan-30-amide] | + (‘+’ indicates 5-25% release)
3 | CCc1c2c(nc3ccc(OCc4c(F)cc(NC(=O)[C@H](CCCNC(N)=O)NC(=O)[C@@H](NC(=O)CCOCCOCCOCCOCCOCCOCCOCCOCCOCCOCCOCCN=[N+]=[N-])C(C)C)cc4F)cc13)-c1cc3c(c(=O)n1C2)COC(=O)[C@]3(O)CC [Example 22, 1-azido-N-((S)-1-(((S)-1-((4-((((S)-4,11-diethyl-4-hydroxy-3,14-dioxo-3,4,12,14-tetrahydro-1H-pyrano[3′,4′:6,7]indolizino[1,2-b]quinolin-9-yl)oxy)methyl)-3,5-difluorophenyl)amino)-1-oxo-5-ureidopentan-2-yl)amino)-3-methyl-1-oxobutan-2-yl)-3,6,9,12,15,18,21,24,27,30,33-undecaoxahexatriacontan-36-amide] | + (‘+’ indicates 5-25% release)
4 | CC[C@@]1(O)C(=O)OCc2c1cc1n(c2=O)Cc2c-1nc1cc(F)c(C)c3c1c2[C@@H](NCc1c(F)cc(NC(=O)[C@H](CCCNC(N)=O)NC(=O)[C@@H](NC(=O)CCOCCOCCOCCOCCOCCOCCOCCOCCOCCOCCOCCN=[N+]=[N-])C(C)C)cc1F)CC3 [Example 23, 1-azido-N-((S)-1-(((S)-1-((4-((((1S,9S)-9-ethyl-5-fluoro-9-hydroxy-4-methyl-10,13-dioxo-2,3,9,10,13,15-hexahydro-1H,12H-benzo[de]pyrano[3′,4′:6,7]indolizino[1,2-b]quinolin-1-yl)amino)methyl)-3,5-difluorophenyl)amino)-1-oxo-5-ureidopentan-2-yl)amino)-3-methyl-1-oxobutan-2-yl)-3,6,9,12,15,18,21,24,27,30,33-undecaoxahexatriacontan-36-amid] | + (‘+’ indicates 5-25% release)
5 | CC[C@@]1(O)C(=O)OCc2c1cc1n(c2=O)Cc2c-1nc1cc(F)c(C)c3c1c2[C@@H](NC(=O)C(=O)c1ccc(NC(=O)[C@H](CCCNC(N)=O)NC(=O)[C@@H](NC(=O)CCOCCOCCOCCOCCOCCOCCN=[N+]=[N-])C(C)C)cc1)CC3 [Example 24, 1-azido-N-((S)-1-(((S)-1-((4-(2-(((1S,9S)-9-ethyl-5-fluoro-9-hydroxy-4-methyl-10,13-dioxo-2,3,9,10,13,15-hexahydro-1H,12H-benzo[de]pyrano[3′,4′:6,7]indolizino[1,2-b]quinolin-1-yl)amino)-2-oxoacetyl)phenyl)amino)-1-oxo-5-ureidopentan-2-yl)amino)-3-methyl-1-oxobutan-2-yl)-3,6,9,12,15,18-hexaoxahenicosan-21-amide] | + (‘+’ indicates 5-25% release)
6 | CC[C@@]1(O)C(=O)OCc2c1cc1n(c2=O)Cc2c-1nc1cc(F)c(C)c3c1c2[C@@H](NC(=O)OCc1ccc(NC(=O)[C@H](CCCCN)NC(=O)[C@H](Cc2ccccc2)NC(=O)CCOCCOCCOCCOCCOCCOCCOCCOCCOCCOCCN=[N+]=[N-])cc1)CC3 [Example 26, 4-((35S,38S)-38-(4-aminobutyl)-1-azido-35-benzyl-33,36-dioxo-3,6,9,12,15,18,21,24,27,30-decaoxa-34,37-diazanonatriacontan-39-amido)benzyl ((1S,9S)-9-ethyl-5-fluoro-9-hydroxy-4-methyl-10,13-dioxo-2,3,9,10,13,15-hexahydro-1H,12H-benzo[de]pyrano[3′,4′:6,7]indolizino[1,2-b]quinolin-1-yl)carbamate] | + (‘+’ indicates 5-25% release)
7 | CC[C@@]1(O)C(=O)OCc2c1cc1n(c2=O)Cc2c-1nc1cc(F)c(C)c3c1c2[C@@H](NC(=O)OCc1ccc(NC(=O)[C@H](CCCNC(N)=O)NC(=O)[C@@H](NC(=O)CCCCCCN=[N+]=[N-])C(C)C)cc1)CC3 [Example 30, 4-((S)-2-((S)-2-(7-Azidoheptanamido)-3-methylbutanamido)-5-ureidopentanamido)benzyl ((1S,9S)-9-ethyl-5-fluoro-9-hydroxy-4-methyl-10,13-dioxo-2,3,9,10,13,15-hexahydro-1H,12H-benzo[de]pyrano[3′,4′:6,7]indolizino[1,2-b]quinolin-1-yl)carbamate] | ++ (‘++’ indicates 26-50% release)
8 | CCc1c2c(nc3ccc(OCCCNC(=O)OCc4ccc(NC(=O)[C@H](CCCCN)NC(=O)[C@@H](NC(=O)CCOCCOCCOCCOCCOCCOCCOCCOCCOCCN=[N+]=[N-])C(C)C)cc4)cc13)-c1cc3c(c(=O)n1C2)COC(=O)[C@]3(O)CC [Example 31, 4-((32S,35S)-35-(4-aminobutyl)-1-azido-32-isopropyl-30,33-dioxo-3,6,9,12,15,18,21,24,27-nonaoxa-31,34-diazahexatriacontan-36-amido)benzyl (3-(((S)-4,11-diethyl-4-hydroxy-3,14-dioxo-3,4,12,14-tetrahydro-1H-pyrano[3′,4′:6,7]indolizino[1,2-b]quinolin-9-yl)oxy)propyl)carbamate] | + (‘+’ indicates 5-25% release)
9 | CCc1c2c(nc3ccc(OCCCNC(=O)OCc4ccc(NC(=O)[C@H](CCCCN)NC(=O)[C@H](Cc5c[nH]c6ccccc56)NC(=O)CCOCCOCCOCCOCCOCCOCCOCCOCCOCCN=[N+]=[N-])cc4)cc13)-c1cc3c(c(=O)n1C2)COC(=O)[C@]3(O)CC [Example 32, 4-((32S,35S)-32-((1H-indol-3-yl)methyl)-35-(4-aminobutyl)-1-azido-30,33-dioxo-3,6,9,12,15,18,21,24,27-nonaoxa-31,34-diazahexatriacontan-36-amido)benzyl (3-(((S)-4,11-diethyl-4-hydroxy-3,14-dioxo-3,4,12,14-tetrahydro-1H-pyrano[3′,4′:6,7]indolizino[1,2-b]quinolin-9-yl)oxy)propyl)carbamate] | + (‘+’ indicates 5-25% release)
10 | CC[C@@]1(O)C(=O)OCc2c1cc1n(c2=O)Cc2c-1nc1cc(F)c(C)c3c1c2[C@@H](NCc1ccc(NC(=O)[C@H](CCCNC(N)=O)NC(=O)[C@@H](NC(=O)CCOCCOCCOCCOCCOCCOCCOCCOCCOCCN=[N+]=[N-])C(C)C)cn1)CC3 [Example 46, 1-azido-N-((S)-1-(((S)-1-((6-((((1S,9S)-9-ethyl-5-fluoro-9-hydroxy-4-methyl-10,13-dioxo-2,3,9,10,13,15-hexahydro-1H,12H-benzo[de]pyrano[3′,4′:6,7]indolizino[1,2-b]quinolin-1-yl)amino)methyl)pyridin-3-yl)amino)-1-oxo-5-ureidopentan-2-yl)amino)-3-methyl-1-oxobutan-2-yl)-3,6,9,12,15,18,21,24,27-nonaoxatriacontan-30-amide] | + (‘+’ indicates 5-25% release)
